In US20100322946A1 (Genentech, published 2010):
Where “and” joins values, the source holds several entries; their conditions need not be identical. Identical values can stand only once. Like-named read-outs stand apart in the source and are kept apart here.

Columns and labels:
[1] = target: T1, HER2 extracellular domain (human, UniProt P04626 23-652); assay: competition ELISA of phage-displayed Fab
T1 construct: extracellular domain; also called HER2-ECD; Her2-ECD

human VEGF109 [2] = target: T2, human VEGF109 (human, UniProt P15692 214-315, limits assumed); assay: BIAcore SPR
T2 construct: also called hVEGF109
T2 sequence (looked up): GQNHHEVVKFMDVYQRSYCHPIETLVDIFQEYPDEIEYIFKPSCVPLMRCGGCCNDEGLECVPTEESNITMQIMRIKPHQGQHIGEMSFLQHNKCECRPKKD

[3] = target: T3, murine VEGF (form not stated) (mouse, UniProt Q00731-2 27-190); assay: BIAcore SPR, mVEGF108
T3 construct: also called mVEGF
T3 sequence (looked up): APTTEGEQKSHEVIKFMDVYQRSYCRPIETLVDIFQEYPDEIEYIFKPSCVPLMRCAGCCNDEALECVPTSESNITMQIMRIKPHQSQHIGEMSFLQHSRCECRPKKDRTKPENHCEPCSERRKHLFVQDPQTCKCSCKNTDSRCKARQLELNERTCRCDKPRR

[4] = target: T4, human VEGF (form not stated) (human, UniProt P15692-4 27-191); assay: competitive phage ELISA
T4 construct: also called hVEGF; hVEGF-A

[5] = target: T4, human VEGF (form not stated); assay: competitive phage ELISA; remark: listed apart in the source
[6] = target: T1, HER2 extracellular domain; assay: Her2 in solution (varied) against DR5 coat
[7] = target: T1, HER2 extracellular domain; assay: BIAcore SPR
human VEGF109 [8] = target: T2, human VEGF109; assay: BIAcore SPR, steady state analysis
[9] = target: T4, human VEGF (form not stated); assay: competitive phage ELISA; remark: listed apart in the source
[10] = target: T1, HER2 extracellular domain; assay: competitive phage ELISA
hVEGF-C [11] = target: T5, hVEGF-C (human, UniProt P49767 103-227); assay: ELISA
T5 construct: also called vascular endothelial growth factor C
T5 sequence (looked up): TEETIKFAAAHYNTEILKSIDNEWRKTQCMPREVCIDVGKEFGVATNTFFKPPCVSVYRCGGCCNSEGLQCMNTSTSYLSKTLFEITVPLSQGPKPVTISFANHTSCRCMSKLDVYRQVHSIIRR

hVEGF-D [12] = target: T6, hVEGF-D (human, UniProt O43915 93-201); assay: ELISA
T6 construct: also called vascular endothelial growth factor D
T6 sequence (looked up): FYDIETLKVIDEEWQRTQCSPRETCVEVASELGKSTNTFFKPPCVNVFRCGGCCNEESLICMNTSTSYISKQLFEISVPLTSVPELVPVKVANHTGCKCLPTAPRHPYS

human death receptor 5 = target: T7, human death receptor 5 (human, UniProt O14763 56-210); assay: ELISA: antigen immobilized, hIgG 15 µg/mL, OD450; bars assigned by their left-to-right order
T7 construct: also called hDR5; DR5

[13] = target: T8, epidermal growth factor receptor extracellular domain (human, UniProt P00533 25-645); assay: as above
T8 construct: extracellular domain; also called hEGFR

bovine serum albumin = target: T9, bovine serum albumin (bovine, UniProt P02769 25-607); assay: as above
T9 construct: also called BSA

[14] = target: T10, VEGF109 (receptor-binding domain of human VEGF, residues 8-109) (human, UniProt P15692 214-315); assay: calculated from ΔCp
T10 construct: also called hVEGF109
T10 sequence (looked up): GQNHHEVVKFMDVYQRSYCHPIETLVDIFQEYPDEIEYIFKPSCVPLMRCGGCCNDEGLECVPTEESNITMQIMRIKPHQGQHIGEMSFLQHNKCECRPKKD

[15] = target: T10, VEGF109 (receptor-binding domain of …); assay: calculated from the SPR KD
[16] = target: T10, VEGF109 (receptor-binding domain of …); assay: isothermal titration calorimetry
[17] = target: T10, VEGF109 (receptor-binding domain of …); assay: calculated from ΔStot, ΔSdesolv and ΔSrt
human VEGF109 [18] = target: T2, human VEGF109; assay: SPR, captured IgG, antigen in solution, 30°C
hVEGF-C [19] = target: T5, hVEGF-C; assay: ELISA: antigen immobilized, hIgG 15 µg/mL, OD450; bars assigned by their left-to-right order
hVEGF-D [20] = target: T6, hVEGF-D; assay: as above
HER3 ECD = target: T11, HER3 ECD; assay: as above
T11 construct: also called ErbB3/HER3 extracellular domain

B1: 35.74 (Fab, V domains shown)
VH: not shown
VL: DIQMTQSPSSLSASVGDRVTITCRAIQDIPKTITGYVAWYQQKPGKAPKLLIYWGSFLYSGVPSRFSGSGSGTDFTLTISSLQPEDFATYYCQQHFNSPPKFGQGTKVEIK
IC50 [1]: 0.7 nM

B2: 3_7 Fab (Fab, V domains shown)
VH: not shown
VL: DIQMTQSPSSLSASVGDRVTITCRASQYIWRYVAWYQQKPGKAPKLLIYWGSSLYSGVPSRFSGSGSGTDFTLTISSLQPEDFATYYCQQGLWYSPPTFGQGTKVEIK
Kd (human VEGF109 [2]): 3 nM | koff (human VEGF109 [2]): 0.0025 s⁻¹ | kon (human VEGF109 [2]): 800000 M⁻¹ s⁻¹ | Kd [3]: 78 nM | koff [3]: 0.0056 s⁻¹ | kon [3]: 72000 M⁻¹ s⁻¹

B3: H7 (scFv, V domains shown)
VH: not shown
VL: DIQMTQSPSSLSASVGDRVTITCRASQNVWDWVAWYQQKPGKAPKLLIYPASSLYSGVPSRFSGSGSGTDFTLTISSLQPEDFATYYCQQGWYIAPPTFGQGTKVEIK
notes: not shown: scFv linker carrying the gD tag and the phage coat fusion
IC50 [4]: 60 nM

B4: 3-7 (phage) (scFv, V domains shown, not shown: large carriers; small tags and cut ends)
VH: not shown
VL: DIQMTQSPSSLSASVGDRVTITCRASQYIWRYVAWYQQKPGKAPKLLIYWGSSLYSGVPSRFSGSGSGTDFTLTISSLQPEDFATYYCQQGLWYSPPTFGQGTKVEIK
IC50 [5]: 16 nM

B5: 3-7 hIgG (antibody, V domains shown)
VH: not shown
VL: DIQMTQSPSSLSASVGDRVTITCRASQYIWRYVAWYQQKPGKAPKLLIYWGSSLYSGVPSRFSGSGSGTDFTLTISSLQPEDFATYYCQQGLWYSPPTFGQGTKVEIK
notes: also called 3-7 anti-hVEGF
Kd (human VEGF109 [2]): 7 nM | koff (human VEGF109 [2]): 0.0042 s⁻¹ | kon (human VEGF109 [2]): 580000 M⁻¹ s⁻¹ | Kd [3]: 30 nM | koff [3]: 0.015 s⁻¹ | kon [3]: 500000 M⁻¹ s⁻¹

B6: 3-4 (phage) (scFv, V domains shown, not shown: large carriers; small tags and cut ends)
VH: not shown
VL: DIQMTQSPSSLSASVGDRVTITCRASQEVYSYVAWYQQKPGKAPKLLIYPASSLYSGVPSRFSGSGSGTDFTLTISSLQPEDFATYYCQQGFWIGPPTFGQGTKVEIK
notes: also called c3-4
IC50 [5]: 32 nM

B7: D1 hIgG (bispecific antibody, V domains shown)
VH: not shown
VL: DIQMTQSPSSLSASVGDRVTITCRASQNVSKHVAWYQQKPGKAPKLLIYWGSYLYSGVPSRFSGSGSGTDFTLTISSLQPEDFATYYCQQSYSGPPTFGQGTKVEIK
notes: also called D1 (anti-hDR5/Her2)
IC50 (read off the curve) [6]: ~50 nM

B8: H4_N (bispecific antibody, V domains shown)
VH: not shown
VL: DIQMTQSPSSLSASVGDRVTITCRASQNIRSGSVAWYQQKPGKAPKLLIYWASYLYSGVPSRFSGSGSGTDFTLTISSLQPEDFATYYCQQHYTTPPTFGQGTKVEIK
notes: also called H4_N hIgG; H4_N Fab
Kd [7]: 9.87 nM and 6 nM | koff [7]: 0.0013 s⁻¹ | kon [7]: 140000 M⁻¹ s⁻¹ and 230000 M⁻¹ s⁻¹ | Kd (human VEGF109 [8]): 550 nM

B9: H4 (phage) (scFv, V domains shown)
VH: not shown
VL: DIQMTQSPSSLSASVGDRVTITCRASQNIRTGSVAWYQQKPGKAPKLLIYWGSYLYSGVPSRFSGSGSGTDFTLTISSLQPEDFATYYCQQHYTTPPTFGQGTKVEIK
IC50 [9]: 115 nM | IC50 [10]: 0.54 nM

B10: 3-1 (Table 2) (Fab, V domains shown)
VH: not shown
VL: DIQMTQSPSSLSASVGDRVTITCRASQNVWDWVAWYQQKPGKAPKLLIYPASSLYSGVPSRFSGSGSGTDFTLTISSLQPEDFATYYCQQGWYIAPPTFGQGTKVEIKR
notes: also called 3-1 Fab
binding result [7]: no binding | Kd [3]: 105 nM | koff [3]: 0.0036 s⁻¹

B11: 3-1 hIgG (antibody, V domains shown)
VH: not shown
VL: DIQMTQSPSSLSASVGDRVTITCRASQNVWDWVAWYQQKPGKAPKLLIYPASSLYSGVPSRFSGSGSGTDFTLTISSLQPEDFATYYCQQGWYIAPPTFGQGTKVEIKR
notes: also called 3-1 IgG; not shown: rest of the human IgG heavy-chain constant region
binding result (hVEGF-C [11]): no binding | binding result (hVEGF-D [12]): no binding | binding result [7]: no binding | Kd [3]: 44 nM | koff [3]: 0.016 s⁻¹ | binding result (human death receptor 5): no binding (tested: 15 µg/mL) | binding result [13]: no binding (tested: 15 µg/mL) | binding result (bovine serum albumin): no binding (tested: 15 µg/mL)

B12: 20.49 (Fab, V domains shown)
VH: not shown
VL: DIQMTQSPSSLSASVGDRVTITCRASVDLPKSVSGYVAWYQQKPGKAPKLLIYWGSFLYSGVPSRFSGSGSGTDFTLTISSLQPEDFATYYCQQHFTSPPTFGQGTKVEIKR
IC50 [1]: 2.6 nM

B13: bH1-44 Fab (Fab, V domains shown)
VH: EVQLVESGGGLVQPGGSLRLSCAASGFNISGTYIHWVRQAPGKGLEWVARIYPSEGYTRYADSVKGRFTISADTSKNTAYLQMNSLRAEDTAVYYCSRWVGVGFYAMDYWGQGTLVTVSS
VL: DIQMTQSPSSLSASVGDRVTITCRASQNIAKTISGYVAWYQQKPGKAPKLLIYWGSFLYSGVPSRFSGSGSGTDFTLTISSLQPEDFATYYCQQHYSSPPTFGQGTKVEIKR
notes: also called bH-44
ΔSdesolv [14]: 9.6e-05 kcal/mol | ΔG [15]: -11.8 kcal/mol | ΔH [16]: -7.1 kcal/mol | ΔSconf [17]: -7.2e-05 kcal/mol

B14: 35.95 (Fab, V domains shown)
VH: not shown
VL: DIQMTQSPSSLSASVGDRVTITCRAIENLPKSVSGYVAWYQQKPGKAPKLLIYWGSFLYSGVPSRFSGSGSGTDFTLTISSLQPEDFATYYCQQHYTSPPTFGQGTKVEIKR
IC50 [1]: 4.3 nM

B15: bH1-81 IgG (bispecific antibody, V domains shown)
VH: not shown
VL: DIQMTQSPSSLSASVGDRVTITCRASQNIAKTISGYVAWYQQKPGKAPKLLIYWGSFLYSGVPSRFSGSGSGTDFTLTISSLQPEDFATYYCQQHYSSPPTFGQGTKVEIKR
notes: also called bH1-81 antibody; not shown: rest of the human IgG heavy-chain constant region
Kd (human VEGF109 [18]): 41 nM | binding result (human death receptor 5): no binding (tested: 15 µg/mL) | binding result (hVEGF-C [19]): no binding (tested: 15 µg/mL) | binding result (hVEGF-D [20]): no binding (tested: 15 µg/mL) | binding result [13]: no binding (tested: 15 µg/mL) | binding result (bovine serum albumin): no binding (tested: 15 µg/mL) | binding result (HER3 ECD): no binding (tested: 15 µg/mL)

B16: 35.45 (Fab, V domains shown)
VH: not shown
VL: DIQMTQSPSSLSASVGDRVTITCRASEDIPKTVSGYVAWYQQKPGKAPKLLIYWGSFLYSGVPSRFSGSGSGTDFTLTISSLQPEDFATYYCQQHFSSPPTFGQGTKVEIKR
IC50 [1]: 1.1 nM

B17: 20.80 (Fab, V domains shown)
VH: not shown
VL: DIQMTQSPSSLSASVGDRVTITCRASEDIPKSISGYVAWYQQKPGKAPKLLIYWGSFLYSGVPSRFSGSGSGTDFTLTISSLQPEDFATYYCQQHFSSPPTFGQGTKVEIKR
IC50 [1]: 2.2 nM
